Source: publication PMC11156904, “Nucleic acid mediated activation of a short prokaryotic Argonaute immune system”
Values joined by “and” are separate entries in the source; they are usually repeats but may differ in a detail not shown here. Identical values can stand only once. One block for each molecule: values may come before it.

Legend:
[1] = molecular target: SPARTA heterodimer (TIR-APAZ/short pAgo complex) from Crenotalea thermophila (Crenotalea thermophila); test: cryo-EM structure; SPARTA oligomer bound to gRNA/tDNA, nominal 3.15-3.35 Å
[2] = molecular target: SPARTA heterodimer (TIR-APAZ/short pAgo complex) from Crenotalea thermophila (Crenotalea thermophila); test: mass photometry; CrtSPARTA incubated with gRNA/tDNA (5 mM MgCl2, 55 °C, 12 hours), 100-fold diluted, in 20 mM HEPES pH 7.5, 100 mM KCl, 2 mM DTT
[3] = molecular target: T1, CrtSPARTA TIR-APAZ;CrtSPARTA short pAgo (CrtAgo) (Crenotalea thermophila;Crenotalea …, UniProt A0A1I7NFG5;A0A1I7NFD7 1-450;1-507, |); test: cryo-EM structure; 5 mM MgCl2; Mg2+ seen in MID pocket; 4 heterodimers, one duplex each; 20 mM HEPES pH 7.5, 100 mM KCl, 1 mM DTT, 5 mM MgCl2; 1.5 mg/ml SPARTA, 16 uM gRNA 37 C 1 h, then 16 uM tDNA 55 C 12 h; conditions: protein: recombinant;recombinant; tags: 6xHis-MBP removed by TEV;none stated on this chain; copies: 1;1; 21 bp; tDNA 5' overhang 23 nt and 3' overhang 1 nt; guide loaded first, then target
T1 sequence 1: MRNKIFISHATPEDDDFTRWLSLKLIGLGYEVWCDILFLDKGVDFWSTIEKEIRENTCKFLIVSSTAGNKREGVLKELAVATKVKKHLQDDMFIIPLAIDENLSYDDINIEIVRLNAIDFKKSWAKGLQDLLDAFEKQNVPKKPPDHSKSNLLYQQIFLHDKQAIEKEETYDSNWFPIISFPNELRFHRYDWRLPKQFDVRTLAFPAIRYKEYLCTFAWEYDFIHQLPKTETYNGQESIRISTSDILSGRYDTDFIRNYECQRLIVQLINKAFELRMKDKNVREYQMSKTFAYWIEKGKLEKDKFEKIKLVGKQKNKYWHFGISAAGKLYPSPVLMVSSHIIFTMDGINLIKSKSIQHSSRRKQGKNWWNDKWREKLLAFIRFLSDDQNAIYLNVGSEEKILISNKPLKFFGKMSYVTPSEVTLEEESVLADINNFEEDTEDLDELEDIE
T1 sequence 2: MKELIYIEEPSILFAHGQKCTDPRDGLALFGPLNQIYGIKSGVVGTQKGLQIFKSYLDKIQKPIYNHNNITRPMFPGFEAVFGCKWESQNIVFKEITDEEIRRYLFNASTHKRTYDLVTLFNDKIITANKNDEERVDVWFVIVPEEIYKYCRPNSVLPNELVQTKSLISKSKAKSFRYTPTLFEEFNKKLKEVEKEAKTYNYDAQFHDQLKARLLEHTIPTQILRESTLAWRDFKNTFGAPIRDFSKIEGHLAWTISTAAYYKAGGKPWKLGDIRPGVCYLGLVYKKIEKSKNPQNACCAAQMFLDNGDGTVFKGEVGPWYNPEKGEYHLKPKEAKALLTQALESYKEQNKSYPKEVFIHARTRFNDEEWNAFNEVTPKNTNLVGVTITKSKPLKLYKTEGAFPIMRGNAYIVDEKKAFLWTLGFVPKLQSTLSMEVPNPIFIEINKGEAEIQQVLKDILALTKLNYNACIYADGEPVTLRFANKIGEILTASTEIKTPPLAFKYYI

[4] = molecular target: T2, CrtSPARTA TIR-APAZ;CrtSPARTA short pAgo loop10-9 deletion (Crenotalea thermophila;Crenotalea …, UniProt A0A1I7NFG5;A0A1I7NFD7 1-450;1-507, |del322-327); test: mass photometry; binds as single heterodimer (~134.6 kDa, expected 132.6); loses dimer formation; 20 mM HEPES pH 7.5, 100 mM KCl, 1 mM DTT, 5 mM MgCl2; 1.5 mg/ml SPARTA, 16 uM gRNA 37 C 1 h, then 16 uM tDNA 55 C 12 h; conditions: protein: recombinant;recombinant; tags: 6xHis-MBP removed by TEV;none stated on this chain; copies: 1;1; 21 bp; tDNA 5' overhang 23 nt and 3' overhang 1 nt; guide loaded first, then target
T2 sequence 1: T1 sequence 1
T2 sequence 2: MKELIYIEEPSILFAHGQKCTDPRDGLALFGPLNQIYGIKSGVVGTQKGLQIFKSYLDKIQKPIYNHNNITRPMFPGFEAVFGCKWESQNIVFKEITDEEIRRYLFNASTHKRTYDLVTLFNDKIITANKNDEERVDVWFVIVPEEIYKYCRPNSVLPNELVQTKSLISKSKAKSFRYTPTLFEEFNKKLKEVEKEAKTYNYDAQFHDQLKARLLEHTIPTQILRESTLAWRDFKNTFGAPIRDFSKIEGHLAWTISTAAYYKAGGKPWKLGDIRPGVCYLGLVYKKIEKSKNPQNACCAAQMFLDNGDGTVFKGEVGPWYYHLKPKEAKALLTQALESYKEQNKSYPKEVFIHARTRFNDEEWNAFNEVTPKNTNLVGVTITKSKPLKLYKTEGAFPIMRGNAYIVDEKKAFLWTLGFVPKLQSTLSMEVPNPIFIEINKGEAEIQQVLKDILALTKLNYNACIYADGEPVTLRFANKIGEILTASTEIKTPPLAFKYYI

stoichiometry N [1]: 4
stoichiometry N [2]: 2 and 4
Molecule: SPARTA heterodimer (TIR-APAZ/short pAgo complex) from Crenotalea thermophila

B1: gRNA/tDNA duplex (DNA:RNA)
RNA: UGAGGUAGUAGGUUGUAUAGU
DNA: AAACGACGGCCAGTGCCAAGCTTACTATACAACCTACTACCTCAT
modifications: 5'-phosphate on guide RNA
binding result [3]: binds
binding result [4]: binds
